The text below walks through data of paper PMC4867895.

The term Km denotes the substrate concentration at which the rate is half of its maximum.

Substrate in the data set: O=C(O)CO
Briefly: purified protein. Conditions: co-substrate O2; recombinant His-tagged enzyme.

B1: CmGOX (Cyanidioschyzon merolae strain 10D) (protein)
chain: MVEKPAVNPATQPLNLAEYHLFAKARLPAMVYGYYASGADDEQTLRDNEEAFRRLRFRPRVLIDVSRVDITKQVMGIDLSFPLMVAPTAMQRMAHPEGELATARAVARIGTVMGLSSWATTSLEDVAAHVPGLPKFFQLYVYKDRAITERLVRRAERAGFRAIALTVDTPQLGRREADIRNQFQLPPHLSLANFADMKDFAQVKGGAGASGLASYVASLIDASLNWNDIAWLKSITRLPILLKGVVTAEDAQRALQYGADGIWISNHGARQLDGVTATIDCLEEVAQSVRGRIPVFIDSGVRRGTDVVKALALGADAVLIGRPIVWGLAVDGEEGVYRLLSLLKDEFKLAMQLCGCQKVSDIRRDLVVRDAFAPYDVRQMLSVKMQSKL
Consider B1, for which the Km is 900 ± 200 µM.
